B1: Tumor necrosis factor α—Related Apoptosis Inducing Ligand (protein, UniProt P50591 1-281, looked up)
Tumor necrosis factor ligand …: MAMMEVQGGPSLGQTCVLIVIFTVLLQSLCVAVTYVYFTNELKQMQDKYSKSGIACFLKEDDSYWDPNDEESMNSPCWQVKWQLRQLVRKMILRTSEETISTVQEKQQNISPLVRERGPQRVAAHITGTRGRSNTLSSPNSKNEKALGRKINSWESSRSGHSFLSNLHLRNGELVIHEKGFYYIYSQTYFRFQEEIKENTKNDKQMVQYIYKYTSYPDPILLMKSARNSCWSKDAEYGLYSIYQGGIFELKENDRIFVSVTNEHLIDMDHEASFFGAFLVG
notes: 281 amino acid type II transmembrane protein of the tumor necrosis factor α family; purchased from Biomol

Key:
Format in all cases: cell-based
[1] = system: LNCaP cells; experiment: Apoptosense assay (M30 ELISA, cleaved cytokeratin 18)
Description: LNCaP were obtained from American Type Culture Collection (Rockville, Md.) and LNCaP C4-2 cells were purchased from Urocor Inc., Oklahoma City, Okla. Cells were grown in RPMI 1640 medium supplemented with 10% (LNCaP) or 5% (LNCaP C4-2) fetal bovine serum (Hyclone, Logan, Utah) and grown in the presence of 5% CO2 at 37° C. Cells were treated with 10 μM Mifepristone (Sigma, St. Louis, Mo.) for three days or with increasing concentrations (from 200 ng/ml to 600 ng/ml) of TRAIL (Biomol Research Laboratories, Inc., Plymouth Meetings, Pa.) for varying time intervals 2, 4, 6, 8, 16, 20 and 24 hours (hr). Thus, for treatment with Mifepristone, cells were treated with Mifepristone for three days and then some cells treated (without washing) with TRAIL for indicated periods. Upon completion of the experiment, cells were harvested, and total proteins, cytosol or mitochondrial fractions were isolated as described below. At least three experiments were conducted with a minimum of four plates per treatment per experiment. Two methods were used to measure induction of apoptosis by drug treatment: the MTT assay and the Apoptosense assay. The MTT assay measures mitochondrial enzyme activity and is indicative of the number of surviving cells. […] Cells were plated in petri dishes and after completion of the treatment, cells were harvested and total protein extracted as described below. […] Color was developed by adding tetramethylbenzidine solution and the optical density of the bound antibody was determined at 450 nm on a Spectra MAX 340 microplate reader (Molecular Devices, Menlo Park, Calif.). Standard solution supplied by the supplier was used for generating standard curves.

[2] = system: PC3Neo cells; experiment: Induction of apoptosis / cell survival (FIG. 1E, 6A)
Description: Prostate cancer cell lines, PC3Neo and PC3AR were provided by Dr. K. Burnstein, University of Miami School of Medicine, Miami, Fla. PC3AR cells are a clonal cell line derived by stable transfection of PC3 with a full-length human AR cDNA (Dai, J. L., et al., Steroids, 61, 531-539, 1996). PC3Neo cells were stably transfected with neomycin vector alone. Cells were grown in RPMI 1640 with 5% FBS (Hyclone, Logan, Utah), 100 units/ml penicillin, 100 μg/ml streptomycin, 0.25 μg/ml fungizone and G418 (350 μg/ml) to select for neomycin-resistant cells. In experiments using antiandrogens, cells were maintained in 5% DCC stripped serum for at least 48 hr before treatment with hydroxyflutamide (Sigma Chemical Co., St. Louis, Mo.). The medium and all the drugs were replaced every two days. Cells were treated with 200 ng/ml, 400 ng/ml or 600 ng/ml of TRAIL (Biomol Research Laboratories, Inc, Plymouth Meeting, Pa.) for 2, 4, 6, 8, 16 and 20 hr. Cells were treated with 5 μM hydroxyflutamide for 5 days before the commencement of treatment with 400 ng/ml TRAIL.
Two methods were used to measure induction of apoptosis by drug treatment: the MTT assay and the Apoptosense assay. The MTT assay measures mitochondrial enzyme activity and is indicative of the number of surviving cells. The Apoptosense assay is an ELISA, which utilizes M30 antibody to recognize the C-terminal domain (amino acids 387-396) of cytokeratin 18 that is exposed in apoptotic cells after cleavage by caspases.
Cells were seeded in 96-well plates (6000 cells/well) and treatment was started 24 hr after seeding the cells. After completion of the treatment, cells were incubated at 37° C. with the MTT reagent for 3 hr and processed according to manufacturers instructions (Promega Corporation, Madison, Wis.). Color development was measured at 490 nm on a Spectra MAX 340 microplate reader (Molecular Devices, Menlo Park, Calif.).
To examine the role of NFκB in altered response to TRAIL, its function was blocked by over expressing mutated IκB protein (Kanegae, Y., et al., Nature 392, 611-614, 1998). […]

[3] = system: LNCaP C4-2 cells; experiment: Western blotting of death receptors, caspases, Bid, cytochrome c, Akt; details: 15 min, FIG. 8

Row | Molecule | M30 activity (in words) [1] | apoptotic response at 200 ng/ml ([2]; 200 ng/ml TRAIL) | death of cells (apoptosis) ([2]; 400 ng/ml TRAIL, by 20 hr, FIG. 1E) | apoptosis at higher dose ([2]; 600 ng/ml TRAIL) | phosphorylated Akt [3]
1 | CC#C[C@]1(O)CC[C@H]2[C@@H]3CCC4=CC(=O)CCC4=C3[C@@H](c3ccc(N(C)C)cc3)C[C@@]21C [Mifepristone] | lower M30 activity | – | – | – | –
2 | B1 | – | lower response | ~18% | did not significantly increase apoptosis | slightly decreased phosphorylated Akt

From patent US20020115613A1, “Treatment of prostate cancer” (priority 2001, published 2002)
